This note sets out measurements from patent US20210087268A1.

The assay has as its target T1, TIGIT expressed on cells (TIGIT-expressing effector cell line of the Promega kit; TIGIT-overexpressing NK92 cell line) (UniProt Q495A1).
T1 sequence (looked up): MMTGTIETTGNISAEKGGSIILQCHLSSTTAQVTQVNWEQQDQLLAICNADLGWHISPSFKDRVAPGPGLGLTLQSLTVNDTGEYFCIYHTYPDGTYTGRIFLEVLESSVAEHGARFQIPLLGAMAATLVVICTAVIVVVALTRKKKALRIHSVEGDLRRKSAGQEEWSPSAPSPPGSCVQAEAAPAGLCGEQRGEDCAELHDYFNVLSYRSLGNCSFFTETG
Briefly: cell-based or functional assay.

10A7 antibody, sequence (VH): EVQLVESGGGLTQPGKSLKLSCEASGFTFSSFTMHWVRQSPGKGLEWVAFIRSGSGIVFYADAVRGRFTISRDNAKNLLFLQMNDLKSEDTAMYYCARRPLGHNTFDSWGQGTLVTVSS
10A7 antibody, sequence (VL): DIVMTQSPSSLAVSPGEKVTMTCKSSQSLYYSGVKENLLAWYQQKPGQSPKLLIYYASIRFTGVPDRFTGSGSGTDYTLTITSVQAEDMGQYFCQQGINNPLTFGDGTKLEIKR

10A7 antibody: the binding inhibition (EC50), TIGIT/CD155 blockade assay, luminescence fold response is 752 nM.
